{"source": "a protein production outcome set (Wang et al. 2014)", "experiment": "label from the status in PepcDB records"}
{"sequence": "MARHRDRAAGMNMAMMRLRREDPRVVGSFRLHRRLGAGGMGVVYLGSDKKGQRVALKVIRPDLAEDQEFRSRFAREVSAARRIRGGCTARLVAADLEADRPWFATQYVPGPSLHDKVADGGPLGAADVAAVGAALSEGLVAVHEAGVVHRDLKPSNILLSPKGPRIIDFGIAWATGASTLTHVGTAVGSPGFLAPEQVRGAAVTPATDVFSLGATLAYASMGDSPFGHGSSEVMLYRVVHEEAQLHGVPDALAPLVRACLAKDPEERPSTLQLSLRLKEIAAREAQGMADVRPPAPRSGEADVPTGRLADTYPERAQRRPQGRPGPQGTPAPRGTSASRGSAPRGSVPSRGGAPSRGGTPSRGGTPSRGGTSSRGGGTGARSGSRPTPTRDTTGRNSSRNDGGRPAPRGGSGRTAPRTTGTGWRRPANPRLLRQRLFVFVVVTLLVALGIAAAQGCQGPARGLGDERGGGVRATQRDQVDPPGGLPEPRTPGR", "values": [{"measurement": "protein production", "value": "failed"}]}
{"sequence": "MNEIFGIDLGTTYSCISYVDEYGRPVVVPNAENERITPSVVFFDGDNVIVGDVAKENSKMYPEDVVSFVKRSMGDENFYFEHGGKNYHAEEISSFILRKLISDAENNLGQKINDVVITCPAYFGINEREATKLAGEIAGLNVKAIINEPTAAAVAYGVDYDKDKVVLVYDLGGGTFDVTMIDVKKDSIKVICTGGDHNLGGKDWDDALIAYMAEQYKEITGNDKDILEDPETCQELQLLAERVKKTLSQREKAPISINYEGERAKIEITRQKFNELTYDLLQRTVNLMDDMLKEAAKKNYTSFDEILLVGGSSRMPQVEEIIKNKYNIEPKVFDPDEAVSKGAALYGWKLSVNDELVRRISEETGKDIEDIKKSIDEKSIDENVVEAAAKRVADDTGYTLSAVKASNVKVVNVVSKSFGVVTYNNEEKEVVYNLIIKNSEVPYEFTERFGTREENQENVMIKIVEDELSDKIVDIAYGNEIGEAELVLPENLPKNSPVDITFKLNEEGRLEIKAIEAVEKREISTSIETSSVIKGKDLEEAKERNKNIEVS", "values": [{"measurement": "protein production", "value": "failed"}]}
{"sequence": "MSVDPKLIRQKIQRLDAGARPRVLDLFSGCGGISLGFQSAGFEIVAAVENDPDAARSHGLNFHHGEDRHSIPRNITVTSPAALATALGLGAAASAFDVIVGGPPCQAFARVGRSKLREIAEHPEAFRHDSRARLYIEYLAYVEACAPLAVVIENVPDMLNHGGHNLAAEIGEILASKDYVVRYTLLNAAFYGVPQMRERMILIAIRKELADDVEFPAPTHWIDLPSGYQGSRAVALKLATGRDLLTEATGGSAYKAAPEAVETLAPAVSTQQAIGDLPEIMARELLAEGALRRGTRRLDAMLPYGGHNQQNDYVKEMRTWPGFEGSSHVRDHVIRYLPRDYRIFAGLKPGDQYPEAHRYALSLFEAELERLHAQGKRPEDGSSEWDALKAAFVPPYDAGKFPNKWRKMEATTPARTLLAHLGKDGYSHIHYDSRQARPISVREAARLQSFPDGFRFAGTMNPAFRQIGNAVPPLLARAIAQTLRSQLVRGVATEDLPRVAGAGR", "values": [{"measurement": "protein production", "value": "failed"}]}
{"sequence": "MVVNESMYQLGSVRSAIRELFEYGKKRAAIVGKENVYDFSIGNPSIPAPQIVNDTIKELVTDYDSVALHGYTSAQGDVETRAAIAEFLNNTHGTHFNADNLYMTMGAAASLSICFRALTSDAYDEFITIAPYFPEYKVFVNAAGARLVEVPADTEHFQIDFDALEERINAHTRGVIINSPNNPSGTVYSEETIKKLSDLLEKKSKEIGRPIFIIADEPYREIVYDGIKVPFVTKYYDNTLVCYSYSKSLSLPGERIGYVLVPDEVYDKAELYAAVCGAGRALGYVCAPSLFQKMIVKCQGATGDINAYKENRDLLYEGLTRIGYHCFKPDGAFYMFVKALEDDSNAFCEKAKEEDVLIVAADGFGCPGWVRISYCVDREMIKHSMPAFEKIYKKYNK", "values": [{"measurement": "protein production", "value": "not failed"}]}
{"sequence": "MGTRWFAKNTTMSKNSIVIGVDLDGVCADFYGRMRQIASEWFERPIDELPEEVSWGLSEWGITNPSQYDSLHRFAVTQRELFSSMEAIPGARKYLRQLSDEGFRIRIITHRLFIHYFHATAVQQTVNWLDSHGIPYWDLCFVKEKTQVGADIYIEDSPENVAQLRGRGLFTICFGNSTNRHIEELRAASWQDVYDMIKAFVT", "values": [{"measurement": "protein production", "value": "failed"}]}
{"sequence": "MTRTLTTPLPTAPRAKPARRPTTLLFAYGATLNPEHIMVRLCQPKIRAIARLPDYRLGFHGHSEVWDSGLETLVDEPGAEAWGVLYELSATELDRFDAWQGVKLDGGGSYFHYPVEVIDENGQLLDALFHRKTEMGPQQPASRDYLDFILAGARARGLPARAIAVLEACTAVQARYPVPKMNTDIKALASKLSCAC", "values": [{"measurement": "protein production", "value": "failed"}]}
{"sequence": "MCNDTATPQLEELVTTVANQLMTVDAATSAEVSQRVLAYLVEQLGVDVSFLRHNDRDRRATRLVAEWPPRLNIPDPDPLRLIYFADADPVFALCEHAKEPLVFRPEPATEDYQRLIEEARGVPVTSAAAVPLVSGEITTGLLGFIKFGDRKWHEAELNALMTIATLFAQVQARVAAEARLRYLADHDDLTGLHNRRALLQHLDQRLAPGQPGPVAALFLDLDRLKAINDYLGHAAGDQFIHVFAQRIGDALVGESLIARLGGDEFVLIPASPMSADAAQPLAERLRDQLKDHVAIGGEVLTRTVSIGVASGTPGQHTPSDLLRRADQAALAAKHAGGDSVAIFTADMSVSGELRNDIELHLRRGIESDALRLVYLPEVDLRTGDIVGTEALVRWQHPTRGLLAPGCFIPVAESINLAGELDRWVLRRACNEFSEWQSAGLGHDALLRINVSAGQLVTGGFVDFVADTIGQHGLDASSVCLEITENVVVQDLHTARATLARLKEVGVHIAIDDFGTGYSAISLLQTLPIDTLKIDKTFVRQLGTNTSDLVIVRGIMTLAEGFQLDVVAEGVETEAAARILLDQRCYRAQGFLFSRPVPGEAMRHMLSARRLPPTCIPATDPALS", "values": [{"measurement": "protein production", "value": "failed"}]}
{"sequence": "MLTNSINYSELSDVAAFVCVVQTGSFTAAAEQLNTSKSVISKYITRLEKRLGVKLLARTTRRLTLTEIGRTFYEGSRQGLEAIDNAEEAVSFLQGKPRGTLKINAPLSFGALHIAPALEEFIHRYPEMQIDLRFDDKKIDMIKDGFDLTVRITHQLEGNLIARRIAPCHHALVAAPNYLAKRGTPKRPEDLVAHNVITYQYQQSPWEWEFTAAKSKPKRVRVNGSVQMNNSLAIREAVLAGVGISRMPTFAVGEDIKSGRLIQLLPKYSLLEHSIYLVFPERNHMAPKTRAFIDYMVKIMEGKPSWDRF", "values": [{"measurement": "protein production", "value": "failed"}]}
{"sequence": "MNPIVKAPTLNDLPAPPPGKTGWPWTEQNEALPEKMPDGSDWPKISIVTPSYNYGQFIEETIRSVLLQGYPNLEYIVVDGGSTDNTVTIIRKYEKYLKYWASEPDHGQTDAINKGYRYCSGDVFAWLNADDLYYDQSTLLKVINFYQKGYDLIVGECLNINADGTHFNQAITSTEKSDPTYFKKYLRYWSSGFLPQPAIFVKKEMADQCFPLSIELYYAMDFQFFLRVLNQEPKSVWIQEKLTRLRWHEDSKTMGTISRIDFHAIVPEPEVHKVALAEAENLPTWLEKIFFRIQAFDYLSLQPYINSLDNFHWLQITKTIVKRPTLAVWPLFWKIFFRSLLGEQIYKLLKRTIRTNLEHHHHHH", "values": [{"measurement": "protein production", "value": "not failed"}]}
{"sequence": "MDEQSVESIAEVFRCFICMEKLRDARLCPHCSKLCCFSCIRRWLTEQRAQCPHCRAPLQLRELVNCRWAEEVTQQLDTLQLCSLTKHEENEKDKCENHHEKLSVFCWTCKKCICHQCALWGGMHGGHTFKPL", "values": [{"measurement": "protein production", "value": "failed"}]}
{"sequence": "GQTAKLVSLRDISDRKRMENQLRENQNKYYRLLENLDNGVIVHNANAEIVYANPKAESFLGLTDLEGRDIDDEYWMFFDKEGEKLEKEEFPVAQVLANQSSLKNFEMGIYRPDTDQLLWAYINAYPEFYNE", "values": [{"measurement": "protein production", "value": "failed"}]}
{"sequence": "MRIEAAELRILELPLKFRFETSFGVQTKRTILLLRLFGEGLEGLGEGVMERLPLYREETVAGARYLLEEVFLPRVLGRDLPNPEALREALAPFRGNPMAKAVLEMAFFDLWAKALGRPLWQVLGGVRQAVEVGVSLGIQPSVEDTLRVVERHLEEGYRRIKLKIKPGWDYEVLKAVREAFPEATLTADANSAYSLANLAQLKRLDELRLDYIEQPLAYDDLLDHAKLQRELSTPICLDESLTGAEKARKAIELGAGRVFNVKPARLGGHGESLRVHALAESAGIPLWMGGMLEAGVGRAHNLHLATLPGFTKPGDVSSASRYWEEDIVEEALEAKDGLMPVPEGVGIGVHLKLPFVERVTLWQRYMSAS", "values": [{"measurement": "protein production", "value": "not failed"}]}
{"sequence": "MAQPSTTYKFELNLTDLDRNVYESVKQTIARHPSETEERMAVRLLAYALWYNENLSFGRGLSDVDEPALWEKSLDDRVLHWIEVGQPDADRLTWCSRRTERTSLLAYGSLRVWEGKVVSAVKNLKNLSIAAVPQEVLETLATDMPRSIKWDVMISEGTVFVTDDRGQHEVQLQWLLGERG", "values": [{"measurement": "protein production", "value": "not failed"}]}
{"sequence": "MALEPAEIFEKVSPSVWEVRVIGPDGKGLSMGSAVVIGDGVVITNCHVLRGGKQVWLKRGNANFGARLQYPDVERDLCQLRVADFHYPPVTLAPGSALVTGQKVYAIGNPLGLELTISEGLISSLRTDDDGRLKSVQTSAAISRGSSGGGLFDANGRLIGITDHQVVLTLGQNLNFAIPADWIADVPARAQKALAARAAAASAVVASTPAPQSAAPTPAPAPAPRHQGELGPNQQTGFSVYLQKTWPKAFVAADGDHYYYWTGKNAELYALSACQERWQNCSVYARNNTVVEPVEGTGERPGAAR", "values": [{"measurement": "protein production", "value": "failed"}]}
{"sequence": "PDIGTFTVRPLDPTRDAELLHGWVTHPKSAFWMMQEARLHDVEREYMAIAASEYHDAFLGLLDDEPVFLMEKYDPAHVELVGLYEPEPGDVGMHFLVAPTDTPVHGFTRAVITAVMEHLFADPATRRVVVEPDVGNKAVHALNEAVG", "values": [{"measurement": "protein production", "value": "failed"}]}
{"sequence": "MSKPEFIARQGRKPTGWLGHIVARVMARETRPENDRALSFLDLADGDSLIDIGCGHGETLFQADRIVRLSGSVGVDFSEVMLKRARARNRDAVWDTRMAFHCADTAALPFPDKRFGKALSVHTIYFWPNPAAHLAEAFRVLRRGGRFLFCYRSTADRRAVEEFPDTVYRFPSVQEVEEKLKLVGFLGPETTTEDIKGLEHHHHHH", "values": [{"measurement": "protein production", "value": "failed"}]}
{"sequence": "MKFTKNQFIWLVVLFFSCFLIYTYWETVVSICNKIFVASQPFLFGAGIAFVVNILMSFYEKILIKFIPFGFITKIKRPVSLLLAFATIGLIFTWVVFTVLPDLIDSINTLISQDRSAINNLINWLLKNKSLQKIIQDLGGVTQVRELINSYSAQLLQQIMNGLTNFLTSLTSLPSTLINLFISIVFSCYVLVGKEKLGSQVNRLVDVYLGRYGKTFHYVVAILNNRFHNFFVYQSIEACILGTLCYIGMRIFNFPYAATISILIGFSAMIPVLGAYIGVTIGTILIMTHSVTLALLFVAYVVILQQFEGNLIYPYVVGGSTGLPVVWVILAITIGSALGGILGMLVSVPVAATLYQIVKDNVVTREKAKAVASLENSD", "values": [{"measurement": "protein production", "value": "not failed"}]}
{"sequence": "MGGITMTAVVSNRDKINFHEVADHYHSNKIIFGIKFLKNWALERLASCAPVPSWRAKLHKMRGVNIGENVYIGYDVIFDRIHPEMITVGDYAEIGDRCILSAHSRGSLTTRQAYPRSIAPIKIGRGVSVNPGCIITQGVEIGDNSIIGVGSVVSRNISPNSLALGYPAKVIKKLDGLEHHHHHH", "values": [{"measurement": "protein production", "value": "not failed"}]}
{"sequence": "MSLATQQLGIIGLFVPTFFGSYYGTILKQTDLELRAVHRHVVVATGCGESTPREQALEAVRFLIGRDCDGVVVISHDLHDEDLDELHRMHPKMVFLNRAFDALPDASFCPDHRRGGELAAATLIEHGHRKLAVISGPFTASDNVERLDGFFDELARHGIARDSVPLIESDFSPEGGYAATCQLLESKAPFTGLFCANDTMAVSALARFQQLGISVPGDVSVIGYDDDYSAAYAAPALTSVHIPTAELTQNAVRWLINQCYGTKWEIFREFPVTVSMRASVAREGHHHHHH", "values": [{"measurement": "protein production", "value": "not failed"}]}
{"sequence": "MSFLKPKTHIEKGDVVILYLSVSSMHAIEAVPEIVNKKGETIPHIFQTNYGSLKVENIIGVEYGSKVELSKGWAHVLQPTPELWTQTLPHRTQIIYTPDISMIIHQLEVRPGAVVVESGTGSGSLSHYFLRALKPTGHLHTFDFHEARADQARDEFRRHGIADFVTVYHRDVCNLGFGAELDGKADAVFLDLPAPDLAVPHAFKALKLSGGRFCSFSPCIEQSQRCIQELTKLGFNEIVSLEVLQQENVVKTRTLPVIDLEFLKLPKTDETTAATNALESKAPKEVKKYLTSSNPQTLPGHTGFLTFATLPPNIPKA", "values": [{"measurement": "protein production", "value": "failed"}]}
